In experiment [1] the test system is HT1080 fibrosarcoma cells. As to the kind of experiment: HT1080 cell invasion through Matrigel matrices. It counts as cell-based, human. The note with it: retroviral expression in HT1080 cells; 48 hr; relative to GFP-expressing cells; p<0.05. How it is done: The effect CystC and D14CystC on the invasion of HT1080 and 3T3-L1 cells was determined as described previously (42). Briefly, upper chambers were coated with 100 μl of diluted Matrigel (1:50 in serum-free media), which was allowed to evaporate to dryness overnight at room temperature. The following morning the Matrigel mixtures were rehydrated and subsequently cultured with control-, CystC-, or D14CystC-expressing HT1080 or 3T3-L1 cells at a density of 100,000 cells/chamber. Cellular invasion was stimulated by addition of 2% serum to the lower chambers. Forty-eight hr later, the cells were washed twice in ice-cold PBS and immediately fixed for 15 min with 95% ethanol. Cells remaining in the upper chambers were removed with a cotton swab, whereas those remaining in the lower chamber were stained with crystal violet. Quantifying invading cells was determined through two independent measures, which yielded identical results: (i) manual counting under a light microscope, and (ii) crystal violet dye extraction by incubation of the membranes in 10% acetic acid, followed by spectrophotometry at 590 nm.
Cathepsin B is a lysosomal cysteine proteinase that functions in intracellular protein catabolism, as well as in bone resorption, hormone activation, and antigen processing (5). During tumorigenesis, cancer cells express a cathepsin B splice variant whose protein product is secreted into the extracellular milieu (5) and localized to the leading edge of invasive tumors (19), thereby promoting cancer cell invasion and metastasis. However, recent evidence has questioned the role of intracellular versus extracellular cathepsin B in promoting cancer cell invasion (20). To distinguish between these two possibilities, human HT1080 fibrosarcoma cells that stably express the murine ecotropic receptor (21) were infected with control (i.e., GFP), CystC, or Δ14CystC retrovirus. Afterward, cells that expressed GFP were isolated by flow cytometry to establish stable polyclonal populations of control-, CystC-, and Δ14CystC-expressing HT1080 cells (data not shown). The inventor chose to study HT1080 cells because they are highly invasive, and because they express large quantities of secreted cathepsin B and comparably little CystC (22). Thus, if extracellular cathepsin B mediates HT1080 cell invasion, it was hypothesized that overexpression of secreted CystC would attenuate their invasion through synthetic basement membranes.
Briefly, GFP-, CystC-, or Δ14CystC-expressing HT0180 cells were allowed to invade through Matrigel-coated membranes for 48 hr. Data shown in FIG. 1A are the mean (±SE) of three (Δ14CystC) and nine (GFP and CystC) independent experiments presented as the percent invasion relative to GFP-expressing HT1080 cells (***, p<0.05; Student's T-Test).

A further experiment concerns HT1080 cells. As to the kind of experiment: Migration of HT1080 cells to fibronectin. Format: cell-based, human. Particulars: overexpression in HT1080 cells; data not shown.
The test system of experiment [2] is NMuMG mammary epithelial cells. As to the kind of experiment: TGF-β-stimulated actin cytoskeletal reorganization (EMT) in NMuMG cells, rhodamine-phalloidin immunofluorescence. The note with it: overexpression in NMuMG cells; TGF-β1 5 ng/ml, 8 hours. Format: cell-based, murine. How it is done:
The ability of TGF-β to alter actin cytoskeletal architecture and E-cadherin expression was monitored essentially as described (Piek et al., 1999). Briefly, control-, CystC-, or Δ14CystC-expressing NMuMG cells were allowed to adhere overnight to glass coverslips in 24-well plates (50,000 cells/well). The cells were stimulated the following day with TGF-β1 (5 ng/ml) for 0-36 hours at 37° C. In some experiments, control NMuMG cells were stimulated with TGF-β1 in the absence or presence of 10 μg/ml of recombinant GST, GST-CystC, or GST-Δ14CystC. Upon completion of agonist stimulation, the cells were washed in ice-cold PBS and immediately fixed in 3.7% formaldehyde. After extensive washing in PBS, the cells were blocked in PBS supplemented with 1.5% FBS, followed by incubation with rhodamine-phalloidin (0.25 μM). […]
To test this hypothesis, the inventor first examined whether CystC and a CystC mutant impaired in its ability to inhibit cathepsin protease activity (i.e., Δ14CystC) could antagonize TGF-β stimulation of EMT in MECs. […] TGF-β stimulation of EMT is studied routinely in murine NMuMG MECs, which readily undergo EMT when treated with TGF-β (Piek et al., 1999; Miettinen et al., 1994; Gotzmann et al., 2004). […] E-cadherin expression was monitored by indirect immunofluorescence with anti-E-cadherin antibodies.
In another experiment, NMuMG cells were infected with ecotropic retrovirus encoding either GFP (i.e., control), CystC, or Δ14CystC, and subsequently were isolated by FACS-sorting for GFP expression to yield stable polyclonal populations of control, CystC, and Δ14CystC-expressing cells. The expression and secretion of recombinant CystC proteins by infected NMuMG and NRK cells was monitored by immunoblotting conditioned-media with anti-CystC antibodies. […] Next, the control, CystC-, and Δ14CystC-expressing NMuMG cells were incubated in the absence or presence of TGF-β1 (5 ng/ml) for 36 hours, whereupon E-cadherin expression was monitored by immunoblotting with anti-E-Cadherin antibodies. […]

Another experiment has as its system NRK kidney fibroblasts. As to the kind of experiment: NRK cell invasion through Matrigel matrices. Format: cell-based, rat. Particulars: expression in NRK cells, 48 hours, p<0.05; for TGF-β-stimulated NRK cell invasion through synthetic basement membranes: TGF-β1 5 ng/ml. How it is done: This hypothesis was tested by infecting NRK cells with bicistronic retrovirus encoding either CystC or Δ14CystC to determine their effects on NRK anchorage-independent growth stimulated by TGF-β. Briefly, rat NRK kidney fibroblasts were infected with control (i.e., pMSCV-IRES-GFP), CystC, or Δ14CystC retroviral supernatants, and the resulting infected cells were isolated by GFP fluorescence on a MoFlo cell sorter 48 hours later. Control, CystC-, and Δ14CystC-expressing NRK cells were cultured in soft-agar in the absence or presence of TGF-β1 (5 ng/ml) for 7 d, whereupon NRK colony formation was quantified by light microscopy. In addition, control, CystC-, and Δ14CystC-expressing NRK cells were allowed to invade through Matrigel matrices in the absence or presence of TGF-β1 (5 ng/ml) for 48 hours.

B1: CystC: full-length human Cystatin C (SEQ ID NO:2), C-terminally Myc- and (His)6-tagged, retrovirally expressed and secreted by the cells (protein, listed as Homo sapiens)
chain: MAGPLRAPLLLLAILAVALAVSPAAGSSPGKPPRLVGGPMDASVEEEGVRRALDFAVGEYNKASNDMYHSRALQVVRARKQIVAGVNYFLDVELGRTTCTKTQPNLDNCPFHDQPHLKRKAFCSFQIYAVPWQGTMTLSKSTCQDA
modifications: C-terminal Myc and His6 tags
For the molecule B1, the “HT1080 cell invasion through Matrigel matrices” value in experiment [1] is reported as “significantly inhibited”. Besides, in the experiment with HT1080 cells, the “migration of HT1080 cells to fibronectin” value is reported as “failed to effect”. The “actin cytoskeletal reorganization stimulated by TGF-β” value in experiment [2] is “prevented”. In the experiment with NRK kidney fibroblasts, the “tonic NRK cell invasion” value is listed as “inhibited significantly” and the “TGF-β-stimulated NRK cell invasion through synthetic basement membranes” value is “inhibited significantly”.

B2: Δ14CystC: human CystC with deletion of positions 80 to 93 (conserved cysteine proteinase inhibitor motif), retrovirally expressed and secreted (protein)
chain: MAGPLRAPLLLLAILAVALAVSPAAGSSPGKPPRLVGGPMDASVEEEGVRRALDFAVGEYNKASNDMYHSRALQVVRARLGRTTCTKTQPNLDNCPFHDQPHLKRKAFCSFQIYAVPWQGTMTLSKSTCQDA
modifications: left off: small tags and cut ends
B2: the “HT1080 cell invasion through Matrigel matrices” value in experiment [1] is “failed to affect”. In addition, the “migration of HT1080 cells to fibronectin” value with HT1080 cells was “failed to effect”. For the same molecule, the “actin cytoskeletal reorganization stimulated by TGF-β” value in experiment [2] is “prevented”. The “TGF-β-stimulated NRK cell invasion through synthetic basement membranes” value in the experiment with NRK kidney fibroblasts is “inhibited significantly”.

For the origin of these results see patent US8058396B2, “Cystatin C as an antagonist of TGF-β and methods related thereto” (National Jewish Health, priority 2003, dated 2011).
